Measurements: the nanobody polyreactivity screen of Harvey et al. (2022)

Test: yeast display, Sf9 membrane polyspecificity reagent, FACS + sequencing; frameworks hold sequencing errors
Method in brief: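 After 36–48 hours of galactose induction, yeast (Saccharomyces cerevisiae BJ5465) displaying a synthetic nanobody library were stained at 4 °C for 1 hour with 10% biotinylated, detergent-solubilized Sf9 membrane reagent. Streptavidin microbeads enriched the stained cells before FACS sorting into low and high (top ~1%) gates on anti-HA and streptavidin fluorescence. Each clone's polyreactivity label reflects its gate of origin.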

Sequence | polyreactivity (PSR sort gate)
QVQLVESGGGLVQAGGSLRLSCAASGSTFSDNDMGWYRQAPGKERELVATIDDDGSTYYADSVKGRFTISRDNAKNTVYLQMNSLKPEDTAVYYCAAEWYGGYPFGYWGQGTQVTVSS | low polyreactivity
QVQLVESGAGLVQAGGSLRLSCAASGITFRGYAMGWYRQAPGKERELVAAISSRGGSTYYADSVMGRFTISRDNAKNTVYLQMNSLKPEDTAVYYCNAVSGLYFTYTYDYWGQGTQVTVSS | high polyreactivity
QVQLVESGGGLVQAGGSLRLSCAASGFIFKPYTMAWYRQAPGKERELVATITFSGGSTYYADSVKGRFTISRDNAKNTVYLQMNSLKPEDTAVYYCAAPRYYRGYAIYDYWGQGTQVTVSS | low polyreactivity
QVQLVESGGGLVQAGGSLRLSCAASGRIFGVYAMGWYRQAAWKERELVAAITRGASTYYADSVKGRFTISRDNAKNTVYLQMNSLKPEDPAVYYCAVSQYRGIYRKYDYWGQGTQVTVSS | high polyreactivity
QVQLVESGGGLVQAGGSLRLSCAASGITIKRYPMGWYRQAPGKEREFVATSSQSGTSTYYADSVKGRFTISRDNAKYTVYLQLNSLKPEDTAVYYCAADYIGYWYGYYSWGQGTQVTVSS | low polyreactivity
QVQLVESGGGLVQAGGSLRLSCAASGSIFGGYAMGWYRQAPGKERELVAAITWNGGSTYYADSVKGRFTISRDNAKNTVYLQMNSLKPEDTAVYYCAAELPGRDAGRYDYWGQGTQVTVSS | low polyreactivity
QVQLVESGGGLVQAGGSLRLSCAASGNTFIPNAMGWYRQAPGKERELVAAIRASGGSTYYADSVKGRFTISRDNAKNTVYLLMNSLKPEDTAVYYCNDDIWYKTYDYWGQGTQVTVSS | low polyreactivity
QVQLVESGGGLVQAGGSLRLSCAASGRTFGQYALGGSRKAPGKERELVATITRTARTNYADSVKGRFTISRDNAKNTVYLQMNSLKPEDTAVYYCAKGWPAIYGTYDYCGQGTQVTVSS | high polyreactivity
QVLLQESGGGLVQAGGSLRLSCAASGSIFLFYTMGWYRQAPVKEREFVAGITLGTTTYNADSVKGRFTISRDNVKNTLYLQMNSLKPEDTAVYYCAVAVGHYTEFWYWGQGTQVTMSS | high polyreactivity
QVQLVESGGGLVQAGGSLRLSCAASGFTFRYYAMGWYRQAPGKERELVASITSGGSTNYADSVKGRFTISRDNAKNTVYLQMNSLKPEDTAVYYCAAQPYKGTGYDYWGQGTQVTVSS | high polyreactivity
QVQLVESGGGLVQAGGSLRLSCSASGSTFVTNVIGWYRQAPGKERELVAAISYSGGNTYYEDSVKGRFTISRDNAKNTVYLQMNSLKPEDTAVYYCAASYKPFKKMGYWGQGTQVTVSS | high polyreactivity
QVQLVESGGGLVHAGGSLRLSCAASGFTFGDNAMGSYRQAPGKERELVADIDSDGSTYYADSVKGRFTISRDNAKNTVYLQMNSLKPEDTAVYYCAKRQAFKQAPYEYWGQCTQVTVSS | low polyreactivity
QVQLVESGGSLVQAGGSHRLSCAASRSIFPPYAMGWYRPAAGKERELVAAITLRGGSTYYADSVKGRFTISRDNAKNTVYLQMNSLKPEDTAVYYCAAYKSAREYYWGQGTQVTVSS | high polyreactivity
QVQLVESVGGLLQAGGSLRLSCAASGFTFSGNGRGWYRQAPGKERELVAAITSTGNTYYADSVKGRFTISRDNAKKTVYLQMNRLKPEDTAVYYCARRGDLLYDYWGQGTQVTVSS | low polyreactivity
QVQLVESGGGLVQAGGSLRLSCAASGRTFNWYTMGWYRQAPGKERELVARINGRGGSTYYADSVKGRFTISRDNAKNTVYLQMNSLKPEDTAVYYCAADLHKLARYDYWGQGTQVTVSS | high polyreactivity
QVQLVESGGGLVQAGGSLRLSCAASGFTFAYYAMGWYRQAPGKERELVAAITSRGGSTYYADSVKGRFTISRDNAKNTVYLQMNSLKPEDTAVYYCATKRVLTGYDSWGQGTQVTVSS | high polyreactivity
QVQLVESGGGLVQAGGSLRLSCAASGITFNYYAMGWYRQAPGKERELVAAITDDGNTNYADSVKGRFTISRDNAKNTVYLQMNSLKPEDTAVYYCAADLLGIPDYEYWGQGTQVTVSS | low polyreactivity
